Patent US20150306234
Residue numbers refer to the chain shown, from its start.

Key:
[1] = test system: T1, B domain deleted FVIII (BDD FVIII), unmutated
T1 sequence: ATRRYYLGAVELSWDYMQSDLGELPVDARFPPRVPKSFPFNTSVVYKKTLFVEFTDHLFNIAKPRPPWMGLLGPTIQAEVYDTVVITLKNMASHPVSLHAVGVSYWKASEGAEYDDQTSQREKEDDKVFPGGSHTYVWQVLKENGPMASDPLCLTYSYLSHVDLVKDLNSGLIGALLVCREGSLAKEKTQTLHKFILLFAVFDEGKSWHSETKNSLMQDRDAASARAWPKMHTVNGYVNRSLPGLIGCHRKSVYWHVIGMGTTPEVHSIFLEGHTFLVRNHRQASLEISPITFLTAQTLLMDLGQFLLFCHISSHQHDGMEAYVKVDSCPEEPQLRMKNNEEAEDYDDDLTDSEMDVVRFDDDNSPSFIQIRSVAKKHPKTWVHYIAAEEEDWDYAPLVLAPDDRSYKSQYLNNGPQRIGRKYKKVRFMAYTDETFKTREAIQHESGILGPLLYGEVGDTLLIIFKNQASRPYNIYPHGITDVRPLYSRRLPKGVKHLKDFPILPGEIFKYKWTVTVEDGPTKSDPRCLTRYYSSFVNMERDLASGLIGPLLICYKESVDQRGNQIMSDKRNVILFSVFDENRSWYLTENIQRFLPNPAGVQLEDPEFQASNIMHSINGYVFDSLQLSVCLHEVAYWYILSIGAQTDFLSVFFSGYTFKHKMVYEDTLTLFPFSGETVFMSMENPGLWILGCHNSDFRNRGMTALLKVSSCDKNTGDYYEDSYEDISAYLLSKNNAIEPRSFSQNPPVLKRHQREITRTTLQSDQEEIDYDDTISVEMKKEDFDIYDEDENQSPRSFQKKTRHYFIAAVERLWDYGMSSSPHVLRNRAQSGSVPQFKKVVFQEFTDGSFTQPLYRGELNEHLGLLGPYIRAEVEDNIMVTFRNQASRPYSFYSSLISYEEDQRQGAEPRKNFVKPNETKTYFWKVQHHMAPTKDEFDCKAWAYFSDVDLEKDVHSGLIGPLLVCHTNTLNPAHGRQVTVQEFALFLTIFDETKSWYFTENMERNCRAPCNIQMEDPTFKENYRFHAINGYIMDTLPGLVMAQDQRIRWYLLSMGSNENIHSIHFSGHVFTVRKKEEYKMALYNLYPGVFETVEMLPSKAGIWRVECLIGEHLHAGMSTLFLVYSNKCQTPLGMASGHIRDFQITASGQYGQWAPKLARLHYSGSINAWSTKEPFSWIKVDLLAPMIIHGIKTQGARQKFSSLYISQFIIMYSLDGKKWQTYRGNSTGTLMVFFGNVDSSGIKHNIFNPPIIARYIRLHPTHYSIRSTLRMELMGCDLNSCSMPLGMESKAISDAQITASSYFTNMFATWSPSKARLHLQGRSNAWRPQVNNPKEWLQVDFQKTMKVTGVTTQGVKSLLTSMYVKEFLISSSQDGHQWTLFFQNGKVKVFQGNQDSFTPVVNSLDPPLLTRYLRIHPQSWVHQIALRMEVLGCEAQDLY

BDD FVIII mutein S2094C = test system: T2, BDD FVIII mutein S2094C
T2 sequence: T1 sequence with L986F, S1200C

## thrombin (Haematologic Technologies, Essex Junction, Vt.)
[1]
  thrombin cleavage, SDS-PAGE with silver staining: Thrombin digestion of the muteins and control produced the expected cleavage fragments.
BDD FVIII mutein S2094C
  thrombin cleavage, SDS-PAGE with silver staining: Thrombin digestion of the muteins and control produced the expected cleavage fragments.
